Data: US20180148504A1

Key:
[1] = biological target: recombinant purified FRα (ECL assay calibrator) (human) (UniProt P15328); assay: ECL sandwich competition; competitors 9F3 capture / 24F12 detection; FRα standard STD03; MORAb-003 10 µg/mL
[2] = biological target: recombinant purified FRα (ECL assay calibrator) (human) (UniProt P15328); assay: ECL sandwich competition; competitors 9F3 capture / 24F12 detection; FRα standard STD04; MORAb-003 50 µg/mL
[3] = biological target: recombinant purified FRα (ECL assay calibrator) (human) (UniProt P15328); assay: ECL sandwich competition; competitors 9F3 capture / 24F12 detection; FRα standard STD05; MORAb-003 10 µg/mL
[4] = biological target: recombinant purified FRα (ECL assay calibrator) (human) (UniProt P15328); assay: ECL sandwich competition; competitors 9F3 capture / 24F12 detection; FRα standard STD06; MORAb-003 10 µg/mL
[5] = biological target: recombinant purified FRα (ECL assay calibrator) (human) (UniProt P15328); assay: ECL sandwich competition; competitors 9F3 capture / 24F12 detection; FRα standard STD07; MORAb-003 10 µg/mL
[6] = biological target: endogenous folate receptor alpha in human serum and plasma samples (human) (UniProt P15328); assay: ECL sandwich capture 19D2.G9 / detection 26A9.C4; serum incubated overnight with 10 µg/mL MORAb-003
[7] = biological target: endogenous folate receptor alpha in human serum and plasma samples (human) (UniProt P15328); assay: ECL sandwich capture 26A9.C4 / detection 19D4.B7; serum incubated overnight with 10 µg/mL MORAb-003
[8] = biological target: endogenous folate receptor alpha in human serum and plasma samples (human) (UniProt P15328); assay: ECL sandwich capture 19D4.B7 / detection 1C6.E12.G8; serum incubated overnight with 10 µg/mL MORAb-003
[9] = biological target: endogenous folate receptor alpha in human serum and plasma samples (human) (UniProt P15328); assay: ECL sandwich capture 1D2.G8.G10 / detection 19D4.B7; serum incubated overnight with 10 µg/mL MORAb-003
[10] = biological target: recombinant purified FRα (ECL assay calibrator) (human) (UniProt P15328); assay: ECL sandwich capture 19D4.B7 / detection 6A2.G7; calibrator incubated overnight with 10 µg/mL MORAb-003
[11] = biological target: endogenous folate receptor alpha in human serum and plasma samples (human) (UniProt P15328); assay: ECL sandwich capture 1A8.G11.E7 / detection 19D4.B7; serum incubated overnight with 10 µg/mL MORAb-003
[12] = biological target: recombinant purified FRα (ECL assay calibrator) (human) (UniProt P15328); assay: ECL sandwich capture 19D2.G9 / detection 19D4.B7; calibrator incubated overnight with 10 µg/mL MORAb-003
[13] = biological target: recombinant purified FRα (ECL assay calibrator) (human) (UniProt P15328); assay: ECL sandwich capture 24H8.D3 / detection 19D4.B7; calibrator incubated overnight with 10 µg/mL MORAb-003
[14] = biological target: recombinant purified FRα (ECL assay calibrator) (human) (UniProt P15328); assay: ECL sandwich capture 2F11.F8 / detection 19D4.B7; calibrator incubated overnight with 10 µg/mL MORAb-003
[15] = biological target: recombinant purified FRα (ECL assay calibrator) (human) (UniProt P15328); assay: ECL sandwich capture 6A2.G7 / detection 1D2.G8.G10; calibrator incubated overnight with 10 µg/mL MORAb-003
[16] = biological target: recombinant purified FRα (ECL assay calibrator) (human) (UniProt P15328); assay: ECL sandwich capture 28H12.G9 / detection 19D4.B7; calibrator incubated overnight with 10 µg/mL MORAb-003
[17] = biological target: recombinant purified FRα (ECL assay calibrator) (human) (UniProt P15328); assay: ECL sandwich capture 1D2.G8.G10 / detection 19D4.B7; calibrator incubated overnight with 10 µg/mL MORAb-003
[18] = biological target: recombinant purified FRα (ECL assay calibrator) (human) (UniProt P15328); assay: ECL sandwich capture 1A8.G11.E7 / detection 19D4.B7; calibrator incubated overnight with 10 µg/mL MORAb-003
[19] = biological target: recombinant purified FRα (ECL assay calibrator) (human) (UniProt P15328); assay: ECL sandwich capture 30G6.G6.G4.E9 / detection 26A9.C4; calibrator incubated overnight with 10 µg/mL MORAb-003
[20] = biological target: recombinant purified FRα (ECL assay calibrator) (human) (UniProt P15328); assay: ECL sandwich capture 30G6.G6.G4.E9 / detection 1A8.G11.E7; calibrator incubated overnight with 10 µg/mL MORAb-003
[21] = biological target: endogenous folate receptor alpha in human serum and plasma samples (human) (UniProt P15328); assay: ECL sandwich capture 6A2.G7 / detection 6A2.G7; serum incubated overnight with 10 µg/mL MORAb-003; no % sign in this cell
[22] = biological target: recombinant purified FRα (ECL assay calibrator) (human) (UniProt P15328); assay: ECL sandwich, positive control +CONT: capture 26B3.F2 (f1) / detection 19D4.B7; calibrator incubated overnight with 10 µg/mL MORAb-003

endogenous folate receptor alpha in human serum and plasma samples (human), sequence (P15328 25-234 limits assumed, form in doubt): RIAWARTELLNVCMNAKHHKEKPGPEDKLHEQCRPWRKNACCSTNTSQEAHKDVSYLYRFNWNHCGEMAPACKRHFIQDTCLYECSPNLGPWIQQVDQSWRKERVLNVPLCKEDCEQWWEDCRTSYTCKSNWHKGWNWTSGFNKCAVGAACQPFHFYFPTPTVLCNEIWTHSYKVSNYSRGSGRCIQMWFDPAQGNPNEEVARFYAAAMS
recombinant purified FRα (ECL assay calibrator) (human), sequence (P15328 25-234 limits assumed): as the sequence (P15328 25-234 limits assumed, form in doubt) above

% of signal without MORAb-003 (MORAb-003 interference) [1]: 61% | % of signal without MORAb-003 (MORAb-003 interference) [2]: 57% | % of signal without MORAb-003 (MORAb-003 interference) [3]: 71% | % of signal without MORAb-003 (MORAb-003 interference) [4]: 103% | % of signal without MORAb-003 (MORAb-003 interference) [5]: 87% | Drug suppression of serum [6]: -55.6% | Drug suppression of serum [7]: -59.7% | Drug suppression of serum [8]: -6.01% | Drug suppression of serum [9]: 84.6% | Drug Suppression of Cal Signal at 500 pg/mL [10]: -9% | Drug suppression of serum [11]: -4.78% | Drug Suppression of Cal Signal at 500 pg/mL [12]: 2% | Drug Suppression of Cal Signal at 500 pg/mL [13]: -3% | Drug Suppression of Cal Signal at 500 pg/mL [14]: -2% | Drug Suppression of Cal Signal at 500 pg/mL [15]: -7% | Drug Suppression of Cal Signal at 500 pg/mL [16]: -17% | Drug Suppression of Cal Signal at 500 pg/mL [17]: -12% | Drug Suppression of Cal Signal at 500 pg/mL [18]: -16% | Drug Suppression of Cal Signal at 500 pg/mL [19]: -11% | Drug Suppression of Cal Signal at 500 pg/mL [20]: 2% | Drug suppression of serum [21]: -45.8 | Drug Suppression of Cal Signal at 500 pg/mL [22]: -5%
B1: farletuzumab (MORAb-003) (antibody, part only; not given: Constant regions, V domains shown, not shown: another chain or arm of the molecule)
VH: EVQLVESGGGVVQPGRSLRLSCSASGFTFSGYGLSWVRQAPGKGLEWVAMISSGGSYTYYADSVKGRFAISRDNAKNTLFLQMDSLRPEDTGVYFCARHGDDPAWFAYWGQGTPVTVSS
VL: DIQLTQSPSSLSASVGDRVTITCSVSSSISSNNLHWYQQKPGKAPKPWIYGTSNLASGVPSRFSGSGSGTDYTFTISSLQPEDIATYYCQQWSSYPYMYTFGQGTKVEIK
